We go through one substance from paper PMC2194224.

In this assay the target is purified M22 (Sir22) protein (Streptococcus pyogenes). The assay is described as follows: radioligand binding.

Substance “human C4b-binding protein (C4BP) (from UniProt P04003 49-597; P20851 18-252) (complex)” showed a percent of radiolabeled ligand bound in the absence of antiserum of 25%.
